Measured values from patent US20110256127A1 (Genentech, published 2011).
Values joined by “and” are separate entries in the source; they are usually repeats but may differ in a detail not shown here. Identical values can stand only once.

Assays:
LRP6 on HEK293 cells = LRP6 on HEK293 cells (human, UniProt O75581 20-1613); test: cell-based or functional assay
[1] = biological target: T1, LRP6 (human; form used in the assay not stated) (human, UniProt O75581 20-1253, limits assumed); test: SPR; LRP6 construct not stated; SPR
T1 construct: probably an E3-E4 fragment for SPR
T1 sequence: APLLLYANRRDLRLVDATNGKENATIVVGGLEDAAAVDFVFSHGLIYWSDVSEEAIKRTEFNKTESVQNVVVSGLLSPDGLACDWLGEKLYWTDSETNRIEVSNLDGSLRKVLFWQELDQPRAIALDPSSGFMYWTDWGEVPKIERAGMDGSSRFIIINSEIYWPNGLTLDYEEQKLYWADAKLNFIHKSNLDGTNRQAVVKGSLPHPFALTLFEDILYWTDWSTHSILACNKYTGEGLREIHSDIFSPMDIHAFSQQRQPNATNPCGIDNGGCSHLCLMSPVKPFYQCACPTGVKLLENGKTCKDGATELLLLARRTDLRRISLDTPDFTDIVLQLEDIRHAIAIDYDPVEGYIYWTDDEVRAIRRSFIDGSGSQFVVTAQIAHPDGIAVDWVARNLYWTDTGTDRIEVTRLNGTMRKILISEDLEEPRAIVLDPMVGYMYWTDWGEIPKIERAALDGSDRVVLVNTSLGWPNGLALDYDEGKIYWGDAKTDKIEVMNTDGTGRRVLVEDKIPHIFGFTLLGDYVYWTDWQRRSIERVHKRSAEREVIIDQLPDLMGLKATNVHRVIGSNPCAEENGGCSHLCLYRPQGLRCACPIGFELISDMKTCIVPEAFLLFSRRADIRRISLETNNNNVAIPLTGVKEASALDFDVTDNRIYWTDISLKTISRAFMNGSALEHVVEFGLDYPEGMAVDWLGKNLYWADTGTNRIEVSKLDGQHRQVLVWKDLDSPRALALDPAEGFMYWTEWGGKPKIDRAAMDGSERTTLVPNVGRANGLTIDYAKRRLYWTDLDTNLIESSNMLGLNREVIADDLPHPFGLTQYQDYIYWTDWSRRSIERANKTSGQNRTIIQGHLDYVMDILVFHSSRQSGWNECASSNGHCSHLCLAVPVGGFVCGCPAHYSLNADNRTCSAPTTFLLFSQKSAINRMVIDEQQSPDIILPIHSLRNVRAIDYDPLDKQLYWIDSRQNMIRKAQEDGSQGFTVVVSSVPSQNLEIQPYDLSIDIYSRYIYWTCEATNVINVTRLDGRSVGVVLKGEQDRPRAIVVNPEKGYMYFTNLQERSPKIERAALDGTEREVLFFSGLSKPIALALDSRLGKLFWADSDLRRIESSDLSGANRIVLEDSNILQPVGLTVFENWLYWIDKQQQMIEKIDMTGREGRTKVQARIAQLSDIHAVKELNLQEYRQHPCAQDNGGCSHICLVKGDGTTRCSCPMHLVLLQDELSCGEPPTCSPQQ

LRP6.E3-E4-Fc = biological target: T2, LRP6.E3-E4-Fc (human); test: ELISA
T2 construct: also called LRP6.E3-4-Fc
T2 sequence (chain, as listed by the source limits assumed): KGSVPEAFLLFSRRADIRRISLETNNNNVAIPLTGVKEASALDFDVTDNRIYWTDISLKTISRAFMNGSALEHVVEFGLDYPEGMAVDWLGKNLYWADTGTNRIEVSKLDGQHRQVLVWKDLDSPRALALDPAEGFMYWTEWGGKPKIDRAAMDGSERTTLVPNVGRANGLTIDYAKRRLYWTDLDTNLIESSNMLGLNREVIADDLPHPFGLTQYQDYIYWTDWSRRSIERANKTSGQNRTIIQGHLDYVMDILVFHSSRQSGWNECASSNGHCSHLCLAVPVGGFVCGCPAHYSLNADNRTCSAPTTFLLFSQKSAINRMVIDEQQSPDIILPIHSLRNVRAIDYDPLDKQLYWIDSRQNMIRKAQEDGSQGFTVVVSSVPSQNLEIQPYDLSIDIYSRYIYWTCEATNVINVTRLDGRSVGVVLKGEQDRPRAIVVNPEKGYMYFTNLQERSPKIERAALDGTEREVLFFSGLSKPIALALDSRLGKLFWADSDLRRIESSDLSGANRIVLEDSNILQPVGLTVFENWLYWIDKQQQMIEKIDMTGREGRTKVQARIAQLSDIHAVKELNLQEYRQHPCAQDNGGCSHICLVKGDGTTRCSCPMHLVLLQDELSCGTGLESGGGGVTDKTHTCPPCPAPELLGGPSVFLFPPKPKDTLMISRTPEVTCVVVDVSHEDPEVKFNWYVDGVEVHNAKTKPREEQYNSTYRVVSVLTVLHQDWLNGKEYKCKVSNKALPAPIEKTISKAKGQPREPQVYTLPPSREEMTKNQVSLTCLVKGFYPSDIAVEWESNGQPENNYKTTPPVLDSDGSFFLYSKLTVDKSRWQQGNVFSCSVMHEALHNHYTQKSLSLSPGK

LRP6.E1-E2-Fc = LRP6.E1-E2-Fc (human); test: ELISA
LRP6.E1-E2-Fc (human), sequence (chain, as listed by the source limits assumed): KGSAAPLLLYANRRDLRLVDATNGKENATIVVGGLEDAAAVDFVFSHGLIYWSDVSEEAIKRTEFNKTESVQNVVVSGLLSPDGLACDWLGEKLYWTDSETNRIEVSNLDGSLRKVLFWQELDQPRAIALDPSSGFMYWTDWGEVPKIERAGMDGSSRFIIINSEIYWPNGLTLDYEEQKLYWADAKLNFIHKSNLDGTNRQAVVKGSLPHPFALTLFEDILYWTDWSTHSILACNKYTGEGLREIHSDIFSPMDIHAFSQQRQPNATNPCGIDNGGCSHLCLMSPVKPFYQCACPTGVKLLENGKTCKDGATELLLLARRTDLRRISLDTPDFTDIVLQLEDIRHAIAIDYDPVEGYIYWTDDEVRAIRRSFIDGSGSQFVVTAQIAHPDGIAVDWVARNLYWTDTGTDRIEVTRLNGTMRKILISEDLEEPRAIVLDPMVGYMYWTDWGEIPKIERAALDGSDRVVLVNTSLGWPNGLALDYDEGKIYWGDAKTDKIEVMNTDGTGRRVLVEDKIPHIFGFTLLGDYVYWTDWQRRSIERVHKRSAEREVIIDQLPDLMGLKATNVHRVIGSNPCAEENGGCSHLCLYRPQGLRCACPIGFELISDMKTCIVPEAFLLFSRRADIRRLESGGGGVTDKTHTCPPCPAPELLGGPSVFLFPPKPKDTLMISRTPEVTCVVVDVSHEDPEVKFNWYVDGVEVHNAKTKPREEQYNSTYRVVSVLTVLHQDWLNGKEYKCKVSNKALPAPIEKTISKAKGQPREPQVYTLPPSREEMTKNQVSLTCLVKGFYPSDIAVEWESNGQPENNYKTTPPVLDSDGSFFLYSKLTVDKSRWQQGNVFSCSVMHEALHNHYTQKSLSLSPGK

[2] = biological target: T1, LRP6 (human; form used in the assay not …); test: Scatchard analysis; format not stated; Scatchard analysis

B1: YW211.31 antibody (antibody, human IgG1, kappa, V domains shown)
VH: EVQLVESGGGLVQPGGSLRLSCAASGFTFTSYYISWVRQAPGKGLEWVAEISPYSGSTYYADSVKGRFTISADTSKNTAYLQMNSLRAEDTAVYYCALRARPPIRLHPRGSVMDYWGQGTLVTVSS
VL: DIQMTQSPSSLSASVGDRVTITCRASQDVSTAVAWYQQKPGKAPKLLIYSASFLYSGVPSRFSGSGSGTDFTLTISSLQPEDFATYYCQQSYTTPPTFGQGTKVEIKR
notes: also called intact YW211.31 antibody
IC50, inhibition of signaling (Wnt luciferase reporter) in Wnt3a-stimulated HEK293 cells (LRP6 on HEK293 cells): ~1 ug/ml and ~6 nM
Kd [1]: ~2 nM
binding result (LRP6.E3-E4-Fc): binds
binding result (LRP6.E1-E2-Fc): no binding
Kd [2]: ~0.6 nM
